Where two headings read alike, the source gives them in different places.
T1: ACVR2B-Fc fusion protein (human) (UniProt Q13705)
T1 sequence: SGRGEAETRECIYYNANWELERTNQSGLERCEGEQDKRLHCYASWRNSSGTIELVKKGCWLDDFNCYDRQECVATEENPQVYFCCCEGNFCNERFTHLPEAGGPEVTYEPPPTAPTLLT

B1: DLK1 A10 (monoclonal scFv-phage) (scFv, V domains shown)
VH: QVQLVESGGGLVQPGRSLRLSCAASGFTFDDYAMHWVRQAPGKGLEWVSGISWNSGSIGYADSVKGRFTISRDNAKNSLYLQMNSLRAEDTAVYYCARGPGLATGKGYADYWGQGTLVTVSS
VL: DIQMTQSPSSVSASVGDRVTITCRASQRISSWLAWYQQKPGRAPKLLIHSASTLHNGVPSRFSGSASGTDFTLTISSLQPEDYAIYYCQQGHSFPYTFGQGTKLEIK
B2: DLK1 A04 (monoclonal scFv-phage) (scFv, V domains shown)
VH: QVQLVESGAEVKKPGASVKVSCKASGYTFKDYAIHWVRQAPGQRLEWMGWINPGSGNTKYSHNFEGRVILTRDASANTAYLELPSLRSEDTAVYYCARSVSAYGSNYFDPWGQGTLITVSS
VL: DIQMTQSPSSLSASVGDRVTITCQASQDISNYLNWYQQKPGKAPKLLIYSTSNLQSGVPSRFSGSGSGTDFTLTISSLQPEDFATYYCQQLNSYPLTFGGGTKVDIK
B3: DLK1 A05 (monoclonal scFv-phage) (scFv, V domains shown)
VH: QMQLVESGGGLVQPGRSLRLSCAASGFTFDEHAMHWVRQAPGKGLEWVSGINWNSGKTGYADSVKGRFTISRDNGKNSLYLQMNSLRAEDTAVYYCAKSGGYGGNTNWYFDLWGRGTLVTVSS
VL: QFVLTQPPSVSGAPGQNVTISCIGTSSNIGVGYDVHWYQQVPGTAPKLLVYGNNNRPSGVPDRFSGSKSGTSASLAITGLQAEDEADYYCQSYDSRLGVVFGGGTKLTVL
B4: DLK1 B09 (monoclonal scFv-phage) (scFv, V domains shown)
VH: QMQLVESGGRLVRPGGSLRLSCAASGFPFTSYAMNWVRQTPGKGLEWVSTITATSGKTYYADSVKGRFTISRDNSRNTLFLQMNSLRAEDTAVYYCVRGESCSGGACSDFDYWGQGALVTVSS
VL: QLVLTQPASVSGSPGQSVTISCTGTSSDIGRYNRVSWYQHHPGKAPKLILNDVTTRPSGFSNRFSGSKSGNTASLTISGLQAEDEADYSCGSYAGSYTYVFGTGTKVTVL
B5: DLK1 H06 (monoclonal scFv-phage) (scFv, V domains shown)
VH: QVQLVQSGGGLIQPGGSLRLSCAASGFTFSLYGMSWVRQAPGKGLEWVSSIPGSGTRTHYADSVKGRFTISRDNSKNTLFLQMNSLRAEDTAVYYCAKSTAYLFDYWGPGTLVTVSS
VL: DIQMTQSPATLSLSPGERATLSCRASQSIRHYLAWYQQKPGQAPRLLIHGASSRATGIPDRFSGSGSGTDFTLTISRLEPEDFAVYYCQHYGSPLHSFGPGTKVEIK
B6: DLK1 H12 (monoclonal scFv-phage) (scFv, V domains shown)
VH: QVQLVQSGGGLVKPGGSLRLSCAASEFTFSDYYMSWVRQAPGKGLEWLSYISGSGITTYYADSVKGRFTISRDNGKKSLYLEMNSLRAEDTAVYYCARLQGHCSGGACSNWFDAWGQGTLITVSS
VL: DIQMTQSPSSLSASVGDRLTITCRASQSILTYLNWYQQKPGKAPKLLIYAASSLQRGVPSRFSGSGSGTDFTLTISGLQPEDFATYYCQQGYGTPYTFGQGTKVDIK
B7: ACVR2B A07 (monoclonal scFv-phage) (scFv, V domains shown)
VH: QLVESGGGLVRPGRSLTLSCTASGFTFNDYAMHWVRQAPGKGLEWVSGISWNTNSKAYADSVKGRFIISRDNAKNSLYLEMNSLRAEDTAVYYCVRDGGRFYYGLDVWGQGTSVTVSS
VL: DIVMTQTPVSSPVTLGQPASISCRSSQSLIHSDGNTYLSWIQQRPGQPPRLLIYKISNRFSGVPDRFSGSGAGTDFTLKISRVEAEDVGVYYCAETSQVPHTFGQGTKVEIK
modifications: scFv linker not given
B8: human antibody F08 (full-length IgG) (antibody, V domains shown)
VH: VQLVESGGGLVQPGGSLRLSCAASGFTFSDHYMDWVRQAPGKGLEWVGRTRNKANSYTTEYAASVKGRFTISRDDSKNSLYLQMNSLRAEDTAVYYCTKGAWLDYWGQGTLVTVSS
VL: IQMTQSPSAMSASVGDRVTITCRASQGISNYLAWFQQKPGKVPKRLIYGASSLQGGVPSRFSGSGSGTEFTLTITSLQPEDFATYFCLQHKSYPLTFGPGTKVEIK
modifications: constant regions not given

Tests used:
[1] = biological target: DLK1-Fc fusion protein (human); test: phage ELISA, DLK1 coated
Chain of DLK1-Fc fusion protein (human) (chain, as listed by the source limits assumed, form in doubt): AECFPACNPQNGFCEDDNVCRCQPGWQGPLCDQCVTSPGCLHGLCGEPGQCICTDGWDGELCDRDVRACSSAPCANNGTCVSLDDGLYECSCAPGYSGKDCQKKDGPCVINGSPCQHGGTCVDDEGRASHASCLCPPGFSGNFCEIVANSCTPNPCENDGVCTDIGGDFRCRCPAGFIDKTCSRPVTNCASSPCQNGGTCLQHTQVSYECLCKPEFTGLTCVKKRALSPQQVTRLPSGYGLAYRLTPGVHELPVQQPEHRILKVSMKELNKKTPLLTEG

[2] = biological target: Fc; test: phage ELISA, Fc coated
[3] = biological target: DLK1-Fc fusion protein (human); test: phage ELISA; OD on DLK1 divided by OD on a-myc
[4] = biological target: anti-myc antibody coated on the ELISA plate; test: phage ELISA, anti-myc coated
[5] = biological target: anti-myc antibody coated on the ELISA plate; test: phage ELISA, anti-myc coated; remark: listed apart in the source
[6] = biological target: T1, ACVR2B-Fc fusion protein (human); test: phage ELISA, ACVR2B coated
[7] = biological target: T1, ACVR2B-Fc fusion protein (human); test: phage ELISA; OD on ACVR2B divided by OD on a-myc
[8] = biological target: T1, ACVR2B-Fc fusion protein (human); test: phage ELISA, ACVR2B coated; remark: listed apart in the source
[9] = biological target: Fc; test: phage ELISA, Fc coated; remark: listed apart in the source
[10] = biological target: T1, ACVR2B-Fc fusion protein (human); test: SPR (ProteOn XPR36)

Binder	OD490 [1] [OD]	OD490 [2] [OD]	Ratio [3]	OD490 [4] [OD]	OD490 [5] [OD]	OD490 [6] [OD]	Ratio [7]	OD490 [8] [OD]	OD490 [9] [OD]	Kd [10] [pM]	koff [10] [s⁻¹]	kon [10] [M⁻¹ s⁻¹]
B1	2.83	0.0828	2.21	1.28	–	–	–	–	–	–	–	–
B2	3.12	0.0791	6.15	0.507	–	–	–	–	–	–	–	–
B3	2.99	0.0704	3.81	0.784	–	–	–	–	–	–	–	–
B4	2.33	0.0786	25.3	0.0918	–	–	–	–	–	–	–	–
B5	2.13	0.0766	2.47	0.863	–	–	–	–	–	–	–	–
B6	3.2	0.0539	4.75	0.674	–	–	–	–	–	–	–	–
B7	–	0.0443	–	0.213	0.213	2.65	12.5	2.66	0.044	–	–	–
B8	–	–	–	–	–	–	–	–	–	4.05	1.32e-05	3.25e+06

— patent US20150030595A1
